Data from the supplement of paper PMC9112550, “Optimization of the antimicrobial peptide Bac7 by deep mutational scanning” (BMC Biology, 2022).

These sequences were tested on Escherichia coli TOP10 (assay: shrunken log2 fold change of peptide-encoding DNA abundance (4.5 h post-induction vs induction); higher = less antimicrobial activity (less host growth inhibition)). Conditions: time post-induction: 4.5 h; library: site-saturation at positions 5, 18, 19, 20.
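Note: peptides expressed intracellularly from a pBAD plasmid library in pooled LB shake-flask culture, induced with 0.3% L-arabinose, DNA abundance read by NGS, three biological replicates, DESeq2 with apeglm shrinkage.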

Row | Sequence | shrunken log2 fold change
1 | RRIRFRPPRLPRPRPRPVVGPRP | 0.362
2 | RRIRFRPPRLPRPRPRPPLAPRP | 0.628
3 | RRIRYRPPRLPRPRPRPLQCPRP | -0.344
4 | RRIRRRPPRLPRPRPRPWWFPRP | -0.378
5 | RRIRARPPRLPRPRPRPRPWPRP | 0.499
6 | RRIRPRPPRLPRPRPRPPGAPRP | 0.806
7 | RRIRGRPPRLPRPRPRPGTKPRP | 0.652
8 | RRIRGRPPRLPRPRPRPYGDPRP | -0.176
9 | RRIRPRPPRLPRPRPRPSEPPRP | -0.213
10 | RRIRLRPPRLPRPRPRPKLKPRP | 0.295
11 | RRIRHRPPRLPRPRPRPDGWPRP | 0.191
12 | RRIRPRPPRLPRPRPRPFFYPRP | -0.214
13 | RRIRNRPPRLPRPRPRPYGHPRP | -0.256
14 | RRIRMRPPRLPRPRPRPMKVPRP | 0.0398
15 | RRIRERPPRLPRPRPRPCWHPRP | -0.523
16 | RRIRFRPPRLPRPRPRPHQLPRP | -0.374
17 | RRIRCRPPRLPRPRPRPSGDPRP | -0.195
18 | RRIRERPPRLPRPRPRPFDHPRP | 0.0195
19 | RRIRGRPPRLPRPRPRPKRSPRP | 0.301
20 | RRIRGRPPRLPRPRPRPVPLPRP | 0.13
21 | RRIRWRPPRLPRPRPRPDWSPRP | 0.0189
22 | RRIRVRPPRLPRPRPRPPTWPRP | 0.0832
23 | RRIRMRPPRLPRPRPRPLRIPRP | 1.06
24 | RRIRDRPPRLPRPRPRPCKDPRP | -0.144
25 | RRIRYRPPRLPRPRPRPRLYPRP | -0.247

Row | Sequence | shrunken log2 fold change
26 | RRIRCRPPRLPRPRPRPAHKPRP | -0.0944
27 | RRIRGRPPRLPRPRPRPLDAPRP | 0.969
28 | RRIRFRPPRLPRPRPRPAYFPRP | -0.108
29 | RRIRPRPPRLPRPRPRPSERPRP | -0.0297
30 | RRIRERPPRLPRPRPRPTPEPRP | 0.122
31 | RRIRARPPRLPRPRPRPNYIPRP | -0.414
32 | RRIRQRPPRLPRPRPRPSYGPRP | -0.188
33 | RRIRHRPPRLPRPRPRPDYKPRP | 0.00107
34 | RRIRMRPPRLPRPRPRPNKIPRP | 0.0176
35 | RRIRMRPPRLPRPRPRPFKAPRP | -0.114
36 | RRIRMRPPRLPRPRPRPKGNPRP | 0.0272
37 | RRIRIRPPRLPRPRPRPGPMPRP | 0.0608
38 | RRIRKRPPRLPRPRPRPNQIPRP | 0.105
39 | RRIRPRPPRLPRPRPRPHMHPRP | -0.438
40 | RRIRPRPPRLPRPRPRPNMEPRP | 0.0784
41 | RRIRMRPPRLPRPRPRPFLHPRP | -0.0137
42 | RRIRPRPPRLPRPRPRPIDGPRP | 0.023
43 | RRIRCRPPRLPRPRPRPIYDPRP | -0.867
44 | RRIRLRPPRLPRPRPRPNHVPRP | -0.449
45 | RRIRERPPRLPRPRPRPGCEPRP | -0.00695
46 | RRIRRRPPRLPRPRPRPIGHPRP | 0.113
47 | RRIRSRPPRLPRPRPRPGFKPRP | 0.122
48 | RRIRWRPPRLPRPRPRPNMMPRP | 0.00802
49 | RRIRIRPPRLPRPRPRPTKDPRP | -0.491
50 | RRIRDRPPRLPRPRPRPKREPRP | -0.024

Row | Sequence | shrunken log2 fold change
51 | RRIRCRPPRLPRPRPRPWLNPRP | -0.752
52 | RRIRDRPPRLPRPRPRPWDSPRP | -0.000687
53 | RRIRNRPPRLPRPRPRPHGKPRP | 0.0681
54 | RRIRNRPPRLPRPRPRPFFQPRP | -0.427
55 | RRIRQRPPRLPRPRPRPQMQPRP | 0.131
56 | RRIRHRPPRLPRPRPRPMFMPRP | -0.256
57 | RRIRYRPPRLPRPRPRPIPCPRP | -0.156
58 | RRIRSRPPRLPRPRPRPFSVPRP | -0.416
59 | RRIRSRPPRLPRPRPRPEEAPRP | 0.983
60 | RRIRDRPPRLPRPRPRPQLRPRP | -0.0942
61 | RRIRWRPPRLPRPRPRPCMCPRP | -0.0735
62 | RRIRPRPPRLPRPRPRPIYDPRP | -0.251
63 | RRIRWRPPRLPRPRPRPWPMPRP | -0.0421
64 | RRIRGRPPRLPRPRPRPCNLPRP | -0.0958
65 | RRIRGRPPRLPRPRPRPNRNPRP | 0.00949
66 | RRIRVRPPRLPRPRPRPFFQPRP | -0.0276
67 | RRIRFRPPRLPRPRPRPEWAPRP | 0.398
68 | RRIRVRPPRLPRPRPRPAQLPRP | 0.0744
69 | RRIRDRPPRLPRPRPRPDRHPRP | -0.278
70 | RRIRCRPPRLPRPRPRPMVKPRP | -0.228
71 | RRIRVRPPRLPRPRPRPDQLPRP | 0.112
72 | RRIRFRPPRLPRPRPRPNQAPRP | 0.138
73 | RRIRCRPPRLPRPRPRPMWWPRP | 0.396
74 | RRIRIRPPRLPRPRPRPYAVPRP | -0.937
75 | RRIRYRPPRLPRPRPRPWAMPRP | -0.00232

Row | Sequence | shrunken log2 fold change
76 | RRIRRRPPRLPRPRPRPSQSPRP | 0.121
77 | RRIRWRPPRLPRPRPRPAKVPRP | -0.177
78 | RRIRDRPPRLPRPRPRPIKSPRP | -0.236
79 | RRIRMRPPRLPRPRPRPEHKPRP | 2.5
80 | RRIRKRPPRLPRPRPRPNGGPRP | 0.0116
81 | RRIRTRPPRLPRPRPRPGVDPRP | 0.0151
82 | RRIRDRPPRLPRPRPRPSRDPRP | 0.00173
83 | RRIRVRPPRLPRPRPRPAFEPRP | 0.125
84 | RRIRIRPPRLPRPRPRPLSYPRP | -0.528
85 | RRIRQRPPRLPRPRPRPHVCPRP | -0.0223
86 | RRIRMRPPRLPRPRPRPYVCPRP | -0.00867
87 | RRIRWRPPRLPRPRPRPLLVPRP | 0.172
88 | RRIRKRPPRLPRPRPRPPLNPRP | 0.309
89 | RRIRSRPPRLPRPRPRPPFDPRP | 0.244
90 | RRIRNRPPRLPRPRPRPADVPRP | -0.289
91 | RRIRKRPPRLPRPRPRPWYMPRP | -0.158
92 | RRIRVRPPRLPRPRPRPQMAPRP | -0.302
93 | RRIRNRPPRLPRPRPRPEYHPRP | 0.0524
94 | RRIRVRPPRLPRPRPRPPAIPRP | 0.376
95 | RRIRFRPPRLPRPRPRPVGIPRP | -0.135
96 | RRIRARPPRLPRPRPRPSWMPRP | -0.131
97 | RRIRPRPPRLPRPRPRPINHPRP | -0.619
98 | RRIRKRPPRLPRPRPRPFGSPRP | -0.00822
99 | RRIRCRPPRLPRPRPRPNIDPRP | -0.539
100 | RRIRARPPRLPRPRPRPQDIPRP | -0.15

Row | Sequence | shrunken log2 fold change
101 | RRIRLRPPRLPRPRPRPNHTPRP | -0.33
102 | RRIRERPPRLPRPRPRPMLNPRP | -0.106
103 | RRIRFRPPRLPRPRPRPFLMPRP | -0.263
104 | RRIRQRPPRLPRPRPRPMDMPRP | -0.274
105 | RRIRPRPPRLPRPRPRPTEHPRP | -0.1
106 | RRIRERPPRLPRPRPRPEEAPRP | 0.353
107 | RRIRKRPPRLPRPRPRPMRQPRP | 0.384
108 | RRIRGRPPRLPRPRPRPTRWPRP | 0.739
109 | RRIRDRPPRLPRPRPRPADIPRP | -0.00114
110 | RRIRYRPPRLPRPRPRPPVLPRP | -0.132
111 | RRIRARPPRLPRPRPRPSLVPRP | 0.413
112 | RRIRGRPPRLPRPRPRPEWFPRP | 0.683
113 | RRIRARPPRLPRPRPRPWPSPRP | -0.0645
114 | RRIRHRPPRLPRPRPRPSGMPRP | 0.0613
115 | RRIRTRPPRLPRPRPRPRQQPRP | 0.349
116 | RRIRIRPPRLPRPRPRPQYFPRP | -0.128
117 | RRIRGRPPRLPRPRPRPLGAPRP | 1.07
118 | RRIRARPPRLPRPRPRPTDYPRP | -0.0499
119 | RRIRPRPPRLPRPRPRPLYLPRP | -0.625
120 | RRIRLRPPRLPRPRPRPRVYPRP | 0.224
121 | RRIRRRPPRLPRPRPRPRTNPRP | 0.482
122 | RRIRYRPPRLPRPRPRPGSLPRP | -0.0848
123 | RRIRDRPPRLPRPRPRPRMGPRP | 0.161
124 | RRIRWRPPRLPRPRPRPEFDPRP | 0.198
125 | RRIRLRPPRLPRPRPRPRVQPRP | -0.143
